Results as given in paper PMC8298264, “Function of cofactor Akirin2 in the regulation of gene expression in model human neutrophil-like HL60 cells” (Bioscience Reports, 2021).

B1: sp¦Q8TEX9¦IPO4_HUMAN (protein, UniProt Q8TEX9 1-1081, looked up)
Importin-4: MESAGLEQLLRELLLPDTERIRRATEQLQIVLRAPAALPALCDLLASAADPQIRQFAAVLTRRRLNTRWRRLAAEQRESLKSLILTALQRETEHCVSLSLAQLSATIFRKEGLEAWPQLLQLLQHSTHSPHSPEREMGLLLLSVVVTSRPEAFQPHHRELLRLLNETLGEVGSPGLLFYSLRTLTTMAPYLSTEDVPLARMLVPKLIMAMQTLIPIDEAKACEALEALDELLESEVPVITPYLSEVLTFCLEVARNVALGNAIRIRILCCLTFLVKVKSKALLKNRLLPPLLHTLFPIVAAEPPPGQLDPEDQDSEEEELEIELMGETPKHFAVQVVDMLALHLPPEKLCPQLMPMLEEALRSESPYQRKAGLLVLAVLSDGAGDHIRQRLLPPLLQIVCKGLEDPSQVVRNAALFALGQFSENLQPHISSYSREVMPLLLAYLKSVPLGHTHHLAKACYALENFVENLGPKVQPYLPELMECMLQLLRNPSSPRAKELAVSALGAIATAAQASLLPYFPAIMEHLREFLLTGREDLQPVQIQSLETLGVLARAVGEPMRPLAEECCQLGLGLCDQVDDPDLRRCTYSLFAALSGLMGEGLAPHLEQITTLMLLSLRSTEGIVPQYDGSSSFLLFDDESDGEEEEELMDEDVEEEDDSEISGYSVENAFFDEKEDTCAAVGEISVNTSVAFLPYMESVFEEVFKLLECPHLNVRKAAHEALGQFCCALHKACQSCPSEPNTAALQAALARVVPSYMQAVNRERERQVVMAVLEALTGVLRSCGTLTLKPPGRLAELCGVLKAVLQRKTACQDTDEEEEEEDDDQAEYDAMLLEHAGEAIPALAAAAGGDSFAPFFAGFLPLLVCKTKQGCTVAEKSFAVGTLAETIQGLGAASAQFVSRLLPVLLSTAQEADPEVRSNAIFGMGVLAEHGGHPAQEHFPKLLGLLFPLLARERHDRVRDNICGALARLLMASPTRKPEPQVLAALLHALPLKEDLEEWVTIGRLFSFLYQSSPDQVIDVAPELLRICSLILADNKIPPDTKAALLLLLTFLAKQHTDSFQAALGSLPVDKAQELQAVLGLS
B2: sp¦Q13637¦RAB32_HUMAN (protein, UniProt Q13637 2-225, looked up)
Ras-related protein Rab-32: AGGGAGDPGLGAAAAPAPETREHLFKVLVIGELGVGKTSIIKRYVHQLFSQHYRATIGVDFALKVLNWDSRTLVRLQLWDIAGQERFGNMTRVYYKEAVGAFVVFDISRSSTFEAVLKWKSDLDSKVHLPNGSPIPAVLLANKCDQNKDSSQSPSQVDQFCKEHGFAGWFETSAKDNINIEEAARFLVEKILVNHQSFPNEENDVDKIKLDQETLRAENKSQCC
B3: sp¦Q92973¦TNPO1_HUMAN (protein, UniProt Q92973 1-898, looked up)
Transportin-1: MVWDRQTKMEYEWKPDEQGLQQILQLLKESQSPDTTIQRTVQQKLEQLNQYPDFNNYLIFVLTKLKSEDEPTRSLSGLILKNNVKAHFQNFPNGVTDFIKSECLNNIGDSSPLIRATVGILITTIASKGELQNWPDLLPKLCSLLDSEDYNTCEGAFGALQKICEDSAEILDSDVLDRPLNIMIPKFLQFFKHSSPKIRSHAVACVNQFIISRTQALMLHIDSFIENLFALAGDEEPEVRKNVCRALVMLLEVRMDRLLPHMHNIVEYMLQRTQDQDENVALEACEFWLTLAEQPICKDVLVRHLPKLIPVLVNGMKYSDIDIILLKGDVEEDETIPDSEQDIRPRFHRSRTVAQQHDEDGIEEEDDDDDEIDDDDTISDWNLRKCSAAALDVLANVYRDELLPHILPLLKELLFHHEWVVKESGILVLGAIAEGCMQGMIPYLPELIPHLIQCLSDKKALVRSITCWTLSRYAHWVVSQPPDTYLKPLMTELLKRILDSNKRVQEAACSAFATLEEEACTELVPYLAYILDTLVFAFSKYQHKNLLILYDAIGTLADSVGHHLNKPEYIQMLMPPLIQKWNMLKDEDKDLFPLLECLSSVATALQSGFLPYCEPVYQRCVNLVQKTLAQAMLNNAQPDQYEAPDKDFMIVALDLLSGLAEGLGGNIEQLVARSNILTLMYQCMQDKMPEVRQSSFALLGDLTKACFQHVKPCIADFMPILGTNLNPEFISVCNNATWAIGEISIQMGIEMQPYIPMVLHQLVEIINRPNTPKTLLENTAITIGRLGYVCPQEVAPMLQQFIRPWCTSLRNIRDNEEKDSAFRGICTMISVNPSGVIQDFIFFCDAVASWINPKDDLRDMFCKILHGFKNQVGDENWRRFSDQFPLPLKERLAAFYGV
B4: sp¦Q9Y2X3¦NOP58_HUMAN (protein, UniProt Q9Y2X3 1-529, looked up)
Nucleolar protein 58: MLVLFETSVGYAIFKVLNEKKLQEVDSLWKEFETPEKANKIVKLKHFEKFQDTAEALAAFTALMEGKINKQLKKVLKKIVKEAHEPLAVADAKLGGVIKEKLNLSCIHSPVVNELMRGIRSQMDGLIPGVEPREMAAMCLGLAHSLSRYRLKFSADKVDTMIVQAISLLDDLDKELNNYIMRCREWYGWHFPELGKIISDNLTYCKCLQKVGDRKNYASAKLSELLPEEVEAEVKAAAEISMGTEVSEEDICNILHLCTQVIEISEYRTQLYEYLQNRMMAIAPNVTVMVGELVGARLIAHAGSLLNLAKHAASTVQILGAEKALFRALKSRRDTPKYGLIYHASLVGQTSPKHKGKISRMLAAKTVLAIRYDAFGEDSSSAMGVENRAKLEARLRTLEDRGIRKISGTGKALAKTEKYEHKSEVKTYDPSGDSTLPTCSKKRKIEQVDKEDEITEKKAKKAKIKVKVEEEEEEKVAEEEETSVKKKKKRGKKKHIKEEPLSEEEPCTSTAIASPEKKKKKKKKRENED
B5: sp¦P41252¦SYIC_HUMAN (protein, UniProt P41252 1-1262, looked up)
Isoleucine--tRNA ligase, …: MLQQVPENINFPAEEEKILEFWTEFNCFQECLKQSKHKPKFTFYDGPPFATGLPHYGHILAGTIKDIVTRYAHQSGFHVDRRFGWDCHGLPVEYEIDKTLGIRGPEDVAKMGITEYNNQCRAIVMRYSAEWKSTVSRLGRWIDFDNDYKTLYPQFMESVWWVFKQLYDKGLVYRGVKVMPFSTACNTPLSNFESHQNYKDVQDPSVFVTFPLEEDETVSLVAWTTTPWTLPSNLAVCVNPEMQYVKIKDVARGRLLILMEARLSALYKLESDYEILERFPGAYLKGKKYRPLFDYFLKCKENGAFTVLVDNYVKEEEGTGVVHQAPYFGAEDYRVCMDFNIIRKDSLPVCPVDASGCFTTEVTDFAGQYVKDADKSIIRTLKEQGRLLVATTFTHSYPFCWRSDTPLIYKAVPSWFVRVENMVDQLLRNNDLCYWVPELVREKRFGNWLKDARDWTISRNRYWGTPIPLWVSDDFEEVVCIGSVAELEELSGAKISDLHRESVDHLTIPSRCGKGSLHRISEVFDCWFESGSMPYAQVHYPFENKREFEDAFPADFIAEGIDQTRGWFYTLLVLATALFGQPPFKNVIVNGLVLASDGQKMSKRKKNYPDPVSIIQKYGADALRLYLINSPVVRAENLRFKEEGVRDVLKDVLLPWYNAYRFLIQNVLRLQKEEEIEFLYNENTVRESPNITDRWILSFMQSLIGFFETEMAAYRLYTVVPRLVKFVDILTNWYVRMNRRRLKGENGMEDCVMALETLFSVLLSLCRLMAPYTPFLTELMYQNLKVLIDPVSVQDKDTLSIHYLMLPRVREELIDKKTESAVSQMQSVIELGRVIRDRKTIPIKYPLKEIVVIHQDPEALKDIKSLEKYIIEELNVRKVTLSTDKNKYGIRLRAEPDHMVLGKRLKGAFKAVMTSIKQLSSEELEQFQKTGTIVVEGHELHDEDIRLMYTFDQATGGTAQFEAHSDAQALVLLDVTPDQSMVDEGMAREVINRIQKLRKKCNLVPTDEITVYYKAKSEGTYLNSVIESHTEFIFTTIKAPLKPYPVSPSDKVLIQEKTQLKGSELEITLTRGSSLPGPACAYVNLNICANGSEQGGVLLLENPKGDNRLDLLKLKSVVTSIFGVKNTELAVFHDETEIQNQTDLLSLSGKTLCVTAGSAPSLINSSSTLLCQYINLQLLNAKPQECLMGTVGTLLLENPLGQNGLTHQGLLYEAAKVFGLRSRKLKLFLNETQTQEITEDIPVKTLNMKTVYVSVLPTTADF
B6: sp¦O95373¦IPO7_HUMAN (protein, UniProt O95373 1-1038, looked up)
Importin-7: MDPNTIIEALRGTMDPALREAAERQLNEAHKSLNFVSTLLQITMSEQLDLPVRQAGVIYLKNMITQYWPDRETAPGDISPYTIPEEDRHCIRENIVEAIIHSPELIRVQLTTCIHHIIKHDYPSRWTAIVDKIGFYLQSDNSACWLGILLCLYQLVKNYEYKKPEERSPLVAAMQHFLPVLKDRFIQLLSDQSDQSVLIQKQIFKIFYALVQYTLPLELINQQNLTEWIEILKTVVNRDVPNETLQVEEDDRPELPWWKCKKWALHILARLFERYGSPGNVSKEYNEFAEVFLKAFAVGVQQVLLKVLYQYKEKQYMAPRVLQQTLNYINQGVSHALTWKNLKPHIQGIIQDVIFPLMCYTDADEELWQEDPYEYIRMKFDVFEDFISPTTAAQTLLFTACSKRKEVLQKTMGFCYQILTEPNADPRKKDGALHMIGSLAEILLKKKIYKDQMEYMLQNHVFPLFSSELGYMRARACWVLHYFCEVKFKSDQNLQTALELTRRCLIDDREMPVKVEAAIALQVLISNQEKAKEYITPFIRPVMQALLHIIRETENDDLTNVIQKMICEYSEEVTPIAVEMTQHLAMTFNQVIQTGPDEEGSDDKAVTAMGILNTIDTLLSVVEDHKEITQQLEGICLQVIGTVLQQHVLEFYEEIFSLAHSLTCQQVSPQMWQLLPLVFEVFQQDGFDYFTDMMPLLHNYVTVDTDTLLSDTKYLEMIYSMCKKVLTGVAGEDAECHAAKLLEVIILQCKGRGIDQCIPLFVEAALERLTREVKTSELRTMCLQVAIAALYYNPHLLLNTLENLRFPNNVEPVTNHFITQWLNDVDCFLGLHDRKMCVLGLCALIDMEQIPQVLNQVSGQILPAFILLFNGLKRAYACHAEHENDSDDDDEAEDDDETEELGSDEDDIDEDGQEYLEILAKQAGEDGDDEDWEEDDAEETALEGYSTIIDDEDNPVDEYQIFKAIFQTIQNRNPVWYQALTHGLNEEQRKQLQDIATLADQRRAAHESKMIEKHGGYKFSAPVVPSSFNFGGPAPGMN

These molecules were tested on human HL60 cells (assay: SWATH-MS proteomics, differential protein representation, akirin2 KO vs WT HL60 cells). Details: akirin2 KO vs WT HL60 cells; sheet "Under-represented in KO".
Format: cell-based
In short: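 WT and akirin2 KO HL60 lysates (150 µg, n=3 biological replicates) were FASP trypsin-digested and desalted. A spectral library was built by IDA from 3 µg digests, then 5 µg per sample went to variable-window SWATH DIA over a 120-min 5–30% acetonitrile gradient. Identifications were accepted at 1% global FDR, with total-area-sum normalization.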

Molecule | Fold Change | Log (Fold Change)
B1 | 0.285 | -0.5451
B2 | 0.6519 | -0.1858
B3 | 0.6517 | -0.186
B4 | 0.6507 | -0.1866
B5 | 0.645 | -0.1904
B6 | 0.28 | -0.5528
